Results from US20230405119A1 (CITY OF HOPE, published 2023).
Numbering of substitutions follows the chain as printed. In names and notes the source's numbering stands.

T1: immobilized recombinant IL13Rα1 (UniProt P78552 22-343, limits assumed)
T1 construct: also called IL13Ra1
T1 sequence (looked up): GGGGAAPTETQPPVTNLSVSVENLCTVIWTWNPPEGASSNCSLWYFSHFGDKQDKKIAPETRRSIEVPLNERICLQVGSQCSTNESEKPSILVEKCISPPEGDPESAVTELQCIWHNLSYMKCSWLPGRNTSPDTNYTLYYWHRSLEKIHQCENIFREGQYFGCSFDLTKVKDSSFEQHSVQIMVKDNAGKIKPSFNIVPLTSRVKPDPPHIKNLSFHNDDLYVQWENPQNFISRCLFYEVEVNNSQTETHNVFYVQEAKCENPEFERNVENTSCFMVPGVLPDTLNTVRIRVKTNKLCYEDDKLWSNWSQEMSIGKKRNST

T2: immobilized IL13Rα2 (UniProt Q14627 27-343, limits assumed)
T2 construct: also called IL13Ra2
T2 sequence (looked up): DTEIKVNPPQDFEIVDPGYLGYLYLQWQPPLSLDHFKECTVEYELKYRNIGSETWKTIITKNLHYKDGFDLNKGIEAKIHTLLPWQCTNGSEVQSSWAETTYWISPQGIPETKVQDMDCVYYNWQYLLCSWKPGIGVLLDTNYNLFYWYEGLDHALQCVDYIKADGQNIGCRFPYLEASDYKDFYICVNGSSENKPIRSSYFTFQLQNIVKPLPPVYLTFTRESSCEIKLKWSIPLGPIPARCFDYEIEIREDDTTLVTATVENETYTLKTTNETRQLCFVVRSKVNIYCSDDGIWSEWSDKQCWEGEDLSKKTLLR

B1: IL13 variant RLK (E11R: E90L: R107K) (ligand)
chain: GPVPPSTALRRLIEELVNITQNQKAPLCNGSMVWSINLTAGMYCAALESLINVSGCSAIEKTQRMLSGFCPHKVSAGQFSSLHVRDTKILVAQFVKDLLLHLKKLFKEGRFN
notes: display scaffold not described
B2: IL13 variant YLK (E11Y: E90L: R107K) (ligand)
chain: B1 chain with R11Y
notes: as for B1

Experiments:
[1] = molecular target: T1, immobilized recombinant IL13Rα1; test: yeast-displayed IL13 variant; surface plasmon resonance with immobilized recombinant receptor, as the filing words it
Text: (§1) In an effort to identify IL13 variants with increased selectivity for binding IL13Rα2 relative to IL13Rα1. To assess receptor binding various mutants were compared to wild-type IL13 ([…] […]; SEQ ID NO: 1) and the previously known […] E11Y mutant ([…] […]; SEQ ID NO: 69). […] Surface plasmon resonance with immobilized recombinant IL13Rα1 and immobilized IL13Rα2 was used to assess binding affinity. As expected, WT bound strongly to both IL13Rα1 and IL13Rα2.

[2] = molecular target: T2, immobilized IL13Rα2; test: yeast-displayed IL13; surface plasmon resonance with immobilized recombinant receptor, as the filing words it
Text: as §1

| Binder | binding result [1] | Kd [2] |
| --- | --- | --- |
| B1 | no binding | 28 nM |
| B2 | no binding | 26 nM |
